Results reported in patent US20160084820A1, “METHODS OF TREATING OR PREVENTING PERIODONTITIS AND DISEASES ASSOCIATED WITH PERIODONTITIS” (priority 2010, published 2016).
Where two headings read alike, the source gives them in different places.

Assays:
[1] = system: phagocytosed P. gingivalis in mouse peritoneal macrophages; assay type: cell-based, P. gingivalis ATCC 33277; settings: for promoting intracellular survival, C5a vs C5a^desArg: 24 h
Procedure: The viability of phagocytosed P. gingivalis was monitored by an antibiotic protection-based intracellular survival assay, as previously described (Wang et al., 2007, J. Immunol., 179:2349-58). Briefly, mouse peritoneal macrophages were allowed to phagocytose P. gingivalis (MOI=10:1; 5×10^6 bacteria and 5×10^5 cells) for […] at 37° C. This was followed by washing to remove extracellular nonadherent bacteria and 1-hour treatment with antibiotics (300 μg/ml gentamicin and 200 μg/ml metronidazole) to eliminate residual or extracellular adherent bacteria. The macrophages were subsequently cultured overnight (for a total of 24 hours) or for 48 hours Immediately after, the macrophages were washed and lysed in sterile distilled water, and viable counts of internalized P. gingivalis were determined by plating serial dilutions of macrophage lysates on blood agar plates subjected to anaerobic culture.
The viability of phagocytosed P. gingivalis was monitored by an antibiotic protection-based intracellular survival assay, as previously described (Wang et al., 2007, J. Immunol., 179:2349-58)). Briefly, mouse peritoneal macrophages were allowed to phagocytose P. gingivalis (at a MOI=10:1; 5×10^6 bacteria and 5×10^5 macrophages) for 30 min at 37° C. This was followed by washing to remove extracellular nonadherent bacteria and 1-hour treatment with antibiotics (300 μg/ml gentamicin and 200 μg/ml metronidazole) to eliminate residual or extracellular adherent bacteria. The macrophages were subsequently cultured overnight for a total of 24 hours Immediately after, the macrophages were washed and lysed in sterile distilled water and viable counts of internalized P. gingivalis were determined by plating serial dilutions of macrophage lysates on blood agar plates subjected to anaerobic culture.

intracellular cAMP = assay: cAMP enzyme immunoassay in P. gingivalis-stimulated macrophages; assay type: cell-based, mouse; settings: for elevating cAMP, C5a vs C5a^desArg: 1 h
nitric oxide production = assay: NO2− (nitric oxide) production, Griess reaction-based assay, macrophages; assay type: cell-based, mouse; settings: for inhibiting nitric oxide, C5a vs C5a^desArg: 24 h
[2] = system: negative regulators of TLR signaling; assay: Expression of negative regulators of TLR signaling, quantitative real-time PCR; assay type: cell-based, mouse; settings: C5a 50 nM, 4 hours
Procedure: Gene expression in resting or activated mouse macrophages was quantified using quantitative real-time PCR. Briefly, RNA was extracted from cell lysates using the PerfectPure RNA cell kit (5 Prime, Fisher) and quantified by spectrometry at 260 and 280 nm. The RNA was reverse-transcribed using the High-Capacity cDNA Archive kit (Applied Biosystems) and quantitative real-time PCR with cDNA was performed using the ABI 7500 Fast System, according to the manufacturer's protocol (Applied Biosystems). TaqMan probes, sense primers, and antisense primers for expression of a house-keeping gene (GAPDH) or iNOS (or the genes shown in FIG. 7) were purchased from Applied Biosystems.
Supplemental experiments also examined the relative expression of negative regulators of TLR signaling in P. gingivalis-stimulated macrophages in the absence or presence of C5a. Mouse macrophages were stimulated with P. gingivalis (Pg; at a MOI=10:1) or medium control, in the presence or absence of 50 nM of C5a, and incubated for 4 hours. Quantitative real-time PCR (ABI 7500 Fast System; Applied Biosystems) was used to determine mRNA expression levels for the indicated molecules (normalized against GAPDH mRNA levels), which are shown in FIG. 7.

[3] = system: GSK3β Ser9-phosphorylation; assay: GSK3β Ser9 phosphorylation ELISA in macrophages; assay type: cell-based, mouse; settings: C5a 50 nM without Pg
Procedure: PKA activity in lysates of activated cells was determined using the ProFluor™ PKA assay, according to the instructions of the manufacturer (Promega) (Hajishengallis et al., 2008, PNAS USA, 105:13532-7). Phosphorylation of GSK313 on Ser9 and total GSK3β were monitored using FACE™ GSK3β ELISA kits (Active Motif).

[4] = system: mouse peritoneal macrophages; assay: P. gingivalis phagocytosis and receptor expression by flow cytometry; assay type: cell-based
Procedure: First, experiments were performed to determine the effect of C5a (50 nM) or C3a (200 nM) on P. gingivalis phagocytosis by unprimed or IFN-γ-primed mouse peritoneal macrophages (FIG. 6A). The phagocytic index was calculated following a 30-min incubation using the following formula: % positive cells for fluorescently labeled P. gingivalis×MFI/100 (extracellular fluorescence was quenched prior to flow cytometry). Mouse macrophages were incubated at 37° C. for 30 min (B) or 24 hours (C) with medium, C5a (50 nM) only, or P. gingivalis (MOI=10:1) with or without C5a (50 nM). The expression levels of the indicated receptors, which coordinately mediate P. gingivalis uptake, were determined by flow cytometry after cell staining with appropriate fluorescently labeled antibodies (FIGS. 6B and 6C). The 30-min time point was examined to determine possible induced surface expression of preformed receptors from intracellular pools. […] Mouse-specific mAbs to TLR2 (clone 6C2), TLR1 (TR23), CD14 (Sa2-8), CD11b (M1/70), and CD18 (M18/2) were obtained from e-Bioscience.

IL-6 production = assay: IL-6 ELISA in P. gingivalis-stimulated macrophages; assay type: cell-based, mouse; settings: C5a 50 nM, 5 or 24 hours
Procedure: Mouse peritoneal macrophages were incubated for 5 or 24 hours at 37° C. with P. gingivalis (Pg; MOI=10:1) in the presence or absence of C5a (50 nM), and culture supernatants were assayed for IL-6 by ELISA.

IL-12p70 production = assay: IL-12p70 induction in IFN-gamma-primed macrophages, ELISA; assay type: cell-based, mouse
Procedure: Induction of nitric oxide production was assessed by measuring the amount of NO2− (stable metabolite of nitric oxide) in stimulated culture supernatants using a Griess reaction-based assay kit (R&D Systems), as previously performed (Hajishengallis et al., 2008, PNAS USA, 105:13532-7). Levels of cAMP in activated cell extracts were measured using a cAMP enzyme immunoassay kit (Cayman Chemical) (Liang et al., 2007, J. Immunol., 178:4811-9). C5a-induced intracellular calcium mobilization was monitored in cells (4×10^6) loaded with 1 μM Indo 1-AM in the presence of 1 μM pluronic acid, as previously described (Ali et al., 1993, J. Biol. Chem., 268:24247-54). Calcium traces were recorded in a Perkin-Elmer fluorescence spectrometer (Model 650-19) with an excitation wavelength of 355 nm and an emission wavelength of 405 nm. Induction of cytokine production in activated cell culture supernatants or in the peritoneal fluid of infected mice was determined by ELISA using kits from eBioscience or Cell Sciences. C5a levels were measured by sandwich ELISA, employing a pair of capture and biotinylated anti-05a mAbs (BD Pharmingen), according to the manufacturer's protocol.
Whether C5a inhibits P. gingivalis-induced IL-12p70 in peritoneal macrophages was investigated. Since macrophages are generally poor producers of IL-12p70 in vitro unless primed with IFN-gamma, macrophages used in these experiments were primed with IFN-gamma (0.1 μg/ml). […] The host TLR response against P. gingivalis is predominantly mediated by TLR2, both in vitro and in vivo. Therefore, whether C5a-mediated inhibition of P. gingivalis-induced IL-12p70 could involve a C5aR-TLR2 crosstalk additionally was examined.

mouse neutrophils = assay: In vitro killing of Pg and oxidative burst by mouse neutrophils; assay type: cell-based; settings: presence of C5a
Procedure: (§1) To directly implicate neutrophils in this evasion mechanism, in vitro experiments were performed. It was shown that the ability of mouse or human neutrophils (purified from peripheral blood5 collected under IRB approval) to kill Pg was inhibited in the presence of C5a in a C5aR-dependent manner, whereas their oxidative burst response was enhanced.

human neutrophils = assay: In vitro killing of Pg and oxidative burst by human neutrophils; assay type: cell-based; settings: presence of C5a
Procedure: as §1

macrophages [5] = assay: Intracellular Ca2+ mobilization (Indo-1 AM), macrophages; assay type: cell-based, mouse; settings: 50 nM
neutrophils = assay: Intracellular Ca2+ mobilization (Indo-1 AM), neutrophils; assay type: cell-based, mouse
macrophages [6] = system: macrophages
Procedure: Thioglycollate-elicited macrophages were isolated from the peritoneal cavity of wild-type or mice deficient in TLR2, TLR4, C3aR, or C5aR (The Jackson Laboratory) (Zhang et al., 2007, Blood, 110:228-36; Gajishengallis et al., 2006, Cell. Microbiol., 8:1557-70), in compliance with established federal guidelines and institutional policies. The macrophages were cultured at 37° C. and 5% CO2 in RPMI 1640 (InVitrogen) supplemented with 10% heat-inactivated FBS, 2 mM L-glutamine, 100 units/ml penicillin G, 100 μg/ml streptomycin, and 0.05 mM 2-ME.
Thioglycollate-elicited macrophages were isolated from the peritoneal cavity of wild-type or mice deficient in TLR2 or C5aR (Hajishengallis et al., 2006, Cell. Microbiol., 8:1557-70; Zhang et al., 2007, Blood, 110:228-36) in compliance with established institutional policies and federal guidelines. Both BALB/c and C57BL/6 C5aR-deficient mice were used (with their respective wild-type controls): The BALB/c mice were obtained from The Jackson Laboratory; and the C57BL/6 C5aR-deficient mice were originally provided by Dr. Craig Gerard (Harvard Medical School) and are now housed at The Jackson Laboratory. The TLR2-deficient mice were originally C57BL/6 (The Jackson Laboratory) and were backcrossed for nine generations onto a BALB/c genetic background before their use in these studies. […]

B1: C5a: mouse C5a anaphylatoxin, purchased from Cell Sciences or R&D Systems (protein)
chain: NLHLLRQKIEEQAAKYKHSVPKKCCYDGARVNFYETCEERVARVTIGPLCIRAFNECCTIANKIRKESPHKPVQLGR
promoting intracellular survival, C5a vs C5a^desArg ([1]; 10 nM): stronger effects than C5a^desArg | intracellular survival of P. gingivalis in macrophages (viable counts of internalized bacteria) ([1]; Pg MOI=10:1, C5a 50 nM or C3a 200 nM, 24 or 48 hours post-infection): significantly promoted | Pg CFU with C5a in the absence of inhibitors ([1]; macrophages with Pg and C5a, 24 hours postinfection, FIG. 2D dashed line): 13.7±2.7 [×10^4] CFU | elevating cAMP, C5a vs C5a^desArg (intracellular cAMP; 10 nM): stronger effects than C5a^desArg | elevation of intracellular cAMP, C5a + P. gingivalis relative to P. gingivalis alone (intracellular cAMP; C5a 50 nM, Pg MOI=10:1): > 3 fold | cAMP difference AMD+C5a+Pg vs. AMD+Pg (intracellular cAMP; CXCR4 blockade by AMD3100 1 μg/ml): > 6 fold | cAMP response to C5a by itself (intracellular cAMP; macrophages without P. gingivalis): failed to induce a cAMP response | inhibiting nitric oxide, C5a vs C5a^desArg (nitric oxide production; 10 nM): stronger effects than C5a^desArg | production of nitric oxide in P. gingivalis-stimulated macrophages (nitric oxide production; C5a 50 nM, unprimed or IFN-gamma-primed, 24 hours): significantly inhibited | expression of negative regulators of TLR signaling with P. gingivalis and C5a [2]: no synergistic or additive effects | Ser9-phosphorylation of GSK3β by C5a itself [3]: only slightly increased | P. gingivalis phagocytosis ([4]; C5a 50 nM or C3a 200 nM, 30-min incubation): not significantly affected | expression of macrophage receptors CD14, TLR2, CD11b/CD18 ([4]; C5a 50 nM, 30 min or 24 hours): essentially unaffected | IL-6 production in P. gingivalis-stimulated macrophages (IL-6 production): up-regulation of IL-6 production | inhibition of P. gingivalis-induced IL-12p70 (IL-12p70 production; 10 nM): already effective | P. gingivalis-induced IL-12p70 production (IL-12p70 production; C5a 50 nM, 24 h): significantly inhibited | LPS-induced IL-12p70 production (IL-12p70 production; C5a 50 nM, E. coli LPS 0.1 μg/ml, 24 h): significantly inhibited | ability of neutrophils to kill Pg (mouse neutrophils): inhibited | oxidative burst response (mouse neutrophils): enhanced | ability of neutrophils to kill Pg (human neutrophils): inhibited | oxidative burst response (human neutrophils): enhanced | intracellular Ca^2+ mobilization (macrophages [5]): comparable intracellular Ca^2+ mobilization | intracellular Ca^2+ mobilization (neutrophils): only C5a was active | cell viability compared to medium-only treatments (macrophages [6]): None of the experimental treatments, including treatments with C5a up to 100 nM, affected cell viability

B2: C5a^desArg: desarginated form of mouse C5a (protein)
chain: NLHLLRQKIEEQAAKYKHSVPKKCCYDGARVNFYETCEERVARVTIGPLCIRAFNECCTIANKIRKESPHKPVQLG
promoting intracellular survival, C5a vs C5a^desArg ([1]; 50 nM): no significant differences | elevating cAMP, C5a vs C5a^desArg (intracellular cAMP; 50 nM): no significant differences | inhibiting nitric oxide, C5a vs C5a^desArg (nitric oxide production; 50 nM): no significant differences | inhibition of P. gingivalis-induced IL-12p70 (IL-12p70 production; 10 nM): not | inhibition of P. gingivalis-induced IL-12p70 (IL-12p70 production; 50 nM): significant (p<0.05) inhibition | intracellular Ca^2+ mobilization (macrophages [5]): comparable intracellular Ca^2+ mobilization | intracellular Ca^2+ mobilization (neutrophils): only C5a was active
